40 sequences from the supplement of paper PMC7877785 can be followed below.

± gives the uncertainty stated by the source.

A short description of this data set: self-splicing fitness, log relative to wild type (ln ratio); higher = more splicing; Tetrahymena group I intron in knt gene, E. coli kanamycin selection, DiMSum; sequences stand for … in CUCUCU…GGAGGGAAAAGUUAUCAGGCAUGCACCUGGUAGCUAGUCUUUAAACCAAUAGAUUGCAUCGGUUUAAAAGGCAAGACCGUCAAAUUGCGGGAAAGGGGUCAACAGCCGUUCAGUACCAAGUCUCAGGGGAAACUUUGAGAUGGCCUUGCAAAGGGUAUGGUAAUAAGCUGACGGACAUGGUCCUAACCACGCAGCCAAGUCCUAAGUCAACAGAUCUUCUGUUGAUAUGGAUGCAGUUCACAGACUAAAUGUCGGUCGGGGAAGAUGUAUUCUUCUCAUAAGAUAUAGUCGGACCUCUCCUUAAUGGGAGCUAGCGGAUGAAGUGAUGCAACACUGGAGCCGCUGGGAACUAAUUUGUAUGCGAAAGUAUAUUGAUUAGUUUUGGAGUACUCGUGGUCG
In short, it runs like this: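 Pooled colonies went to amplicon sequencing on an Illumina HiSeq 2500 after six replicate transformations. The plates were LB agar with 100 μg/mL carbenicillin, 50 μM IPTG and 0.2% rhamnose, with or without 25 μg/mL kanamycin, incubated overnight at 37°C or 30°C. The E. coli BL21(DE3) library had all eight P1ex-region intron nucleotides randomised, the intron placed in the knt kanamycin-resistance gene on pET-22b(+). DiMSum fitness is the error-weighted combination of replicate fold changes, kanamycin against none, normalised to wild type.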

In the case of UCGGAGCAAUAUUACGCGUC, the “self-splicing fitness (ln)” value (30 °C) is -2.14 ± 0.47.
Regarding AGGUAGCAAUAUUACGGCGU, the “self-splicing fitness (ln)” value by setting is: (30 °C) -0.0406 ± 0.013; (37 °C) 0.231 ± 0.033.
For CAGGAGCAAUAUUACGUCAG, in that order: -3.88 ± 0.4 and -1.17 ± 0.28.
Take AAAGAGCAAUAUUACGUGUA: the “self-splicing fitness (ln)” value (30 °C) was -3.3 ± 0.16 and the “self-splicing fitness (ln)” value (37 °C) was -2.27 ± 0.22.
For ACCAAGCAAUAUUACGCAAG, in that order: -2.05 ± 0.072 and -2.12 ± 0.12.
UGGCAGCAAUAUUACGAGCC: the “self-splicing fitness (ln)” value (30 °C) was -2.1 ± 0.29 and the “self-splicing fitness (ln)” value (37 °C) is -2.37 ± 0.44.
For AAGUAGCAAUAUUACGUAGG, in that order: -4.35 ± 0.28 and -1.75 ± 0.18.
For CUAUAGCAAUAUUACGUAAU, in that order: -2.07 ± 0.16 and -3.88 ± 0.36.
For GUACAGCAAUAUUACGUGGC, in that order: -3.61 ± 0.17 and -1.75 ± 0.13.
Turning to CGGGAGCAAUAUUACGCUAG, the “self-splicing fitness (ln)” value runs as follows: (30 °C) -2.57 ± 0.27; (37 °C) -1.27 ± 0.35.
Take UUGGAGCAAUAUUACGAUUG: the “self-splicing fitness (ln)” value (37 °C) is -2.34 ± 0.41.
CCGAAGCAAUAUUACGGUAU: the “self-splicing fitness (ln)” value (30 °C) is -3.13 ± 0.25 and the “self-splicing fitness (ln)” value (37 °C) is -3.64 ± 0.36.
As to GUCUAGCAAUAUUACGCAUA, the “self-splicing fitness (ln)” value is, setting by setting: (30 °C) -1.08 ± 0.14; (37 °C) -0.121 ± 0.12.
For GAUGAGCAAUAUUACGCUUA, in that order: -2.21 ± 0.28 and -2.33 ± 0.25.
On to AUAAAGCAAUAUUACGAAGA, for which the “self-splicing fitness (ln)” value runs as follows: (30 °C) -2.47 ± 0.15; (37 °C) -1.17 ± 0.18.
For UGAUAGCAAUAUUACGGACA, in that order: -0.237 ± 0.1 and 0.61 ± 0.14.
For GUAGAGCAAUAUUACGUCAG, in that order: -3.1 ± 0.3 and -2.07 ± 0.23.
Consider CUGUAGCAAUAUUACGAGAA, for which the “self-splicing fitness (ln)” value (37 °C) was -2.78 ± 0.38.
AUAUAGCAAUAUUACGAUUG: the “self-splicing fitness (ln)” value (30 °C) is -2.96 ± 0.18 and the “self-splicing fitness (ln)” value (37 °C) is -3.2 ± 0.4.
In the case of AUAUAGCAAUAUUACGGAAA, the “self-splicing fitness (ln)” value (37 °C) is -0.209 ± 0.33.
For the sequence GAGUAGCAAUAUUACGCCGA, the “self-splicing fitness (ln)” value is, setting by setting: (30 °C) -1.54 ± 0.17; (37 °C) -0.774 ± 0.13.
For AACAAGCAAUAUUACGGGUA, in that order: -0.841 ± 0.063 and -0.307 ± 0.071.
For GCCAAGCAAUAUUACGUCAC, in that order: -3.8 ± 0.19 and -1.8 ± 0.16.
Turning to CAAGAGCAAUAUUACGAACA, the “self-splicing fitness (ln)” value (37 °C) was -2.49 ± 0.33.
In the case of CAUUAGCAAUAUUACGUUAC, the “self-splicing fitness (ln)” value was -3.48 ± 0.2 (30 °C) and -2.17 ± 0.25 (37 °C).
As to UAGGAGCAAUAUUACGCAGG, the “self-splicing fitness (ln)” value (30 °C) was -2 ± 0.21.
As to UAGAAGCAAUAUUACGAAGC, the “self-splicing fitness (ln)” value (37 °C) is -2.2 ± 0.24.
In the case of GGAGAGCAAUAUUACGCAGC, the “self-splicing fitness (ln)” value by setting is: (30 °C) -1.26 ± 0.17; (37 °C) -2.78 ± 0.26.
In the case of AAUCAGCAAUAUUACGUGAU, the “self-splicing fitness (ln)” value was -0.823 ± 0.048 (30 °C) and -0.268 ± 0.067 (37 °C).
For UUUGAGCAAUAUUACGCGAG, in that order: -1.42 ± 0.15 and -0.997 ± 0.2.
As to CUCCAGCAAUAUUACGCCCC, the “self-splicing fitness (ln)” value (30 °C) is -4.17 ± 0.46.
ACCCAGCAAUAUUACGAAGG: the “self-splicing fitness (ln)” value is, setting by setting: (30 °C) -1.71 ± 0.071; (37 °C) -0.892 ± 0.1.
For UCGAAGCAAUAUUACGCCCA, in that order: -1.84 ± 0.32 and -0.793 ± 0.25.
For UGACAGCAAUAUUACGCAGG, in that order: -3.54 ± 0.35 and -1.4 ± 0.2.
As for GGGAAGCAAUAUUACGGCUC, the “self-splicing fitness (ln)” value (30 °C) was -0.727 ± 0.12 and the “self-splicing fitness (ln)” value (37 °C) worked out at 0.0488 ± 0.17.
For UCGAAGCAAUAUUACGGUUA, in that order: -0.579 ± 0.12 and -0.97 ± 0.097.
For ACUUAGCAAUAUUACGUCCU, in that order: -0.527 ± 0.085 and -0.132 ± 0.13.
UAGCAGCAAUAUUACGAGCU: the “self-splicing fitness (ln)” value is -1.5 ± 0.13 (30 °C) and -0.893 ± 0.14 (37 °C).
As to GCACAGCAAUAUUACGCGGA, the “self-splicing fitness (ln)” value reads like this: (30 °C) -1.51 ± 0.14; (37 °C) -0.87 ± 0.12.
With GACUAGCAAUAUUACGAGGU, the “self-splicing fitness (ln)” value reads like this: (30 °C) -2.34 ± 0.2; (37 °C) -1.64 ± 0.2.
